Peptide text beside a SMILES is read from it.
Tests used:
DQA1*0501/DQB1*0201 = DQA1*0501/DQB1*0201 (Homo sapiens, UniProt P01909+P01920, A45G/A70V/D89A/E106A/E77G/E98D/H199R/L107V/N214S/P84L/P87L/T103K/T109R/T172A/T60S/V78E/V99I/Y58L/Y62S/Y69I/Y79F); assay: biochemical
DQA1*0101/DQB1*0501 = DQA1*0101/DQB1*0501 (Homo sapiens, UniProt P01909+P01920, A157S/A45G/A70V/C70R/D89V/E106S/E118A/E183D/E77G/F83G/G63E/H151Q/H199R/H252R/H253Q/I129T/I235V/I88M/INS77G/K197Q/L107V/L117V/L119Y/L178F/L71W/L74F/L85Q/L91A/L98M/M46L/N214S/P87R/Q116E/Q256R/Q57E/Q76K/R102G/R240Q/R75S/R78G/S102Y/S185I/S41F/S97I/T103A/T109R/T121G/T122I/T172A/T86R/V148I/V68A/V73E/Y34C/Y58G/Y62H); assay: biochemical; type: binding
DQA1*0102/DQB1*0602 = DQA1*0102/DQB1*0602 (Homo sapiens, UniProt P01909+P01920, A157G/A45G/C70R/E118A/E183D/E77G/F83G/G63E/H151Q/H199R/H252R/H253Q/I129T/I235V/I88M/INS77G/K197Q/L117V/L119F/L178F/L71W/L74F/L85Q/L91A/L98M/N214S/P87R/Q116E/Q76K/R102G/R240Q/R75S/R78G/S102Y/S185I/S41F/S97I/T121G/T122I/T172A/T86R/V229M/V68A/V73E/Y34C/Y41F/Y58L); assay: biochemical; type: binding
[1] = biological target: HLA-DQ DQA1*0101/DQB1*0501 (human (endogenous in EBV-transformed cell line LG2)); assay: radioligand binding
[2] = biological target: HLA-DQ DQA1*0501/DQB1*0201 (human (endogenous in EBV-transformed cell line VAVY)); assay: radioligand binding
[3] = biological target: HLA-DQ DQA1*0301/DQB1*0302 (human (endogenous in EBV-transformed cell line Preiss)); assay: radioligand binding

Question: With `CC[C@H](C)[C@H](NC(=O)[C@H](CO)NC(=O)[C@H](CCC(=O)O)NC(=O)[C@H](C)NC(=O)[C@H](CCC(=O)O)NC(=O)[C@H](CCSC)NC(=O)[C@H](CCC(N)=O)NC(=O)[C@H](CCCCN)NC(=O)[C@@H](NC(=O)[C@H](CC(=O)O)NC(=O)[C@H](CCC(=O)O)NC(=O)[C@H](CCSC)NC(=O)[C@H](C)NC(=O)[C@H](CCC(N)=O)NC(=O)[C@H](CC(=O)O)NC(=O)[C@H](CCC(=O)O)NC(=O)[C@@H](N)[C@@H](C)O)[C@@H](C)CC)C(=O)N[C@@H](CO)C(=O)O` as the molecule, how does the IC50 (DQA1*0501/DQB1*0201) read?
Answer: Its IC50 is 439 nM.

Question: With `CC(C)C[C@H](NC(=O)[C@@H](NC(=O)[C@H](Cc1c[nH]cn1)NC(=O)[C@H](CO)NC(=O)[C@H](Cc1ccccc1)NC(=O)[C@H](CO)NC(=O)CNC(=O)CNC(=O)[C@H](CC(C)C)NC(=O)[C@H](Cc1ccc(O)cc1)NC(=O)[C@H](CCCNC(=N)N)NC(=O)[C@H](Cc1ccc(O)cc1)NC(=O)[C@H](CC(C)C)NC(=O)[C@@H]1CCCN1)C(C)C)C(=O)O` as the molecule, how does the IC50 (DQA1*0101/DQB1*0501) read?
Answer: Its IC50 is 2460 nM.

Question: `CC[C@H](C)[C@H](N)C(=O)N[C@@H](CC(N)=O)C(=O)N[C@@H](CCC(=O)O)C(=O)N1CCC[C@H]1C(=O)N[C@H](C(=O)N[C@@H](C)C(=O)N[C@@H](C)C(=O)N[C@@H](C)C(=O)N[C@H](C(=O)N[C@@H](C)C(=O)N[C@@H](Cc1ccc(O)cc1)C(=O)NCC(=O)N[C@@H](CC(C)C)C(=O)N[C@@H](CC(=O)O)C(=O)N[C@@H](CCCNC(=N)N)C(=O)O)[C@@H](C)CC)[C@@H](C)O` (H-INEPTAAAIAYGLDR-OH) was tested. Which IC50 (DQA1*0102/DQB1*0602) did it give?
Answer: Its IC50 is 6.3 nM.

Question: How did the IC50 [1] turn out when PLYRYLGGSFSHVL [C. trachomatis enolase peptide …] was run?
Answer: Its IC50 is 2460 nM.

Question: For KPVSKMRMATPLLMQALP [Homo sapiens Ii chain peptide …], which IC50 [2] is on record?
Answer: Its IC50 is 30 nM.

Question: TEDQAMEDIKQMEAESIS [Bos taurus a-S1 casein peptide …] was tested. Which IC50 [2] did it give?
Answer: The IC50 was 439 nM.

Question: Which IC50 [3] does the source give for TPTEKDEYCARVNH [H. sapiens B2-m peptide …] here?
Answer: Its IC50 is 29500 nM.

Question: How did the IC50 [3] turn out when RMMEYGTTMVSYQPL was run?
Answer: The IC50 was 185 nM.

Question: For FDRSTKVIDFHYPNE, which IC50 [3] is on record?
Answer: Its IC50 is 3960 nM.

Question: DCLLCAYSIEFGTNISKEHD [Gallus gallus ovomucoid peptide …] was tested. Which IC50 [3] did it give?
Answer: The IC50 was 146 nM.

From article PMC3307390 (Journal of Immunology (Baltimore, Md. : 1950), 2010)
